Measurements taken from PMC7824358, “The Influence of the Mixed DPC:SDS Micelle on the Structure and Oligomerization Process of the Human Cystatin C” (Membranes, 2020).

Columns and labels:
[1] = biological target: human cystatin C V57P variant (human) (UniProt P01034); experiment: SEC; analytical gel filtration, Superdex 75 PC 3.2/30, eluted with PBS; protein 30 μM in PBS incubated 24 h at 22 °C with dilution series of DPC:SDS (5:1) mixed micelle, DPC or SDS; dimer retention ca. 13.5 min, monomer ca. 16 min; dimer to monomers
[2] = biological target: the molecule itself; experiment: SEC; hCC WT incubated 24 h in 25 mM sodium acetate buffer pH 4.0, 150 mM NaCl, 1 mM benzamidine hydrochloride; dimer separated from monomer on Superdex 75 10/300 GL; monomer to dimer

| stoichiometry N [1] | Molecule | stoichiometry N [2] |
| --- | --- | --- |
| 2 | human cystatin C V57P variant (from UniProt P01034 27-146) (natural protein) |  |
|  | human cystatin C (hCC) wild-type (natural protein, UniProt P01034 27-146, looked up, human cystatin C, expressed from the pHD313 vector behind the E. coli OmpA signal peptide; Used as a monomer sample and as a dimer sample made by incubation at pH 4.0 and separated by SEC; also called hCC WT; WT) SSPGKPPRLVGGPMDASVEEEGVRRALDFAVGEYNKASNDMYHSRALQVVRARKQIVAGVNYFLDVELGRTTCTKTQPNLDNCPFHDQPHLKRKAFCSFQIYAVPWQGTMTLSKSTCQDA | 2 |
